Experimental data: patent publication US20200190176A1 (VERITAS THERAPEUTICS, published 2020)

T1: recombinant human FGL2 (human, UniProt Q14314 30-439, limits assumed)
T1 construct: also called hFGL2; FGL2/fibroleukin
T1 sequence (looked up): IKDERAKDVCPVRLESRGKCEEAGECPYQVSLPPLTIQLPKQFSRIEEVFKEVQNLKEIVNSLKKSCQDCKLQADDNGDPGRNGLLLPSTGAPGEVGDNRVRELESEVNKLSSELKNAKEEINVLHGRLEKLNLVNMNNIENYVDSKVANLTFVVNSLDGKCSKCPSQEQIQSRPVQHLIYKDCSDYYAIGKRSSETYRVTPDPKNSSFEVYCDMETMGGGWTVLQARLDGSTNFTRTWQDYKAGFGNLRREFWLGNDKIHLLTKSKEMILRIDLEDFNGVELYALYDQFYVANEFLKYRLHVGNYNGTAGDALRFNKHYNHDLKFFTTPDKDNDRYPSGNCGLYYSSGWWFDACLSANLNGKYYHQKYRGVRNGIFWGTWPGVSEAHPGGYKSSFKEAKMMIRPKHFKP

T2: recombinant mouse FGL2 (mouse, UniProt P12804 27-432, limits assumed)
T2 construct: native mouse FGL2 is said to exist as an oligomer; also called murine recombinant FGL2
T2 sequence (looked up): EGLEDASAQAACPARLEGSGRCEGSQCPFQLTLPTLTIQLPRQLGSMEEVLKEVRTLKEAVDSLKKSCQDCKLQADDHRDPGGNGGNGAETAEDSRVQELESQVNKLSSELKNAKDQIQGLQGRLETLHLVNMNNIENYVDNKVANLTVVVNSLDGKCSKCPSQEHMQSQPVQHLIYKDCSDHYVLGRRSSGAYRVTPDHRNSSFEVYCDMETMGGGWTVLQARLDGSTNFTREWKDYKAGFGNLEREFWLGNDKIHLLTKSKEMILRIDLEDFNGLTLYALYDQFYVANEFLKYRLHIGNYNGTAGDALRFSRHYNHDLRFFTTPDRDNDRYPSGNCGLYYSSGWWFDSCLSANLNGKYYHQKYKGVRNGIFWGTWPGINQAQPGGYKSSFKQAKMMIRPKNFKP

B1: anti-FGL2 monoclonal antibody 9D8 (antibody, mouse IgG1, kappa, V domains shown)
VH: EVQLQQSGAELVKPGASVQLSCTASGFNIKDTYIHWVKQRPEQGLEWIGRIDPEDGNTKYDPKFQAKATITADTFSNTAYLQLSSLTSEDTAVYYCARSYGNAYWGQGTLVTVSA
VL: DIVLTQSPASLAVSLGQRATISCRASQSVSTSRYTYMHWYQQKPGQPPKLLIKYASNLDSGVPARFSGSGSGTDFTLNIHPVQEEDTATYYCQHSWEIWAFGGGTKLEIKR
notes: Mouse hybridoma antibody purified from ascites; isotype-matched control was IgG1; here built without leader from variable region plus constant region; also called clone 9D8; antibody to FGL2 (9D8)
B2: anti-FGL2 monoclonal antibody 3H9 (antibody, mouse IgG2b, kappa, V domains shown)
VH: EVQLQQSGPELVKSGASVKISCKTSGYTFTEYTIHWVKQSHGESLEWVGGINPKNGGISYNQKFKGKATLTVDKSSSTAYMELRSLTSEDSAVYFCARWGIGNYVGFPYWGQGTLVTVSA
VL: SIVMTQTPKFLLVSAGDRVTMTCKASLSVNNDVAWYQQKPGQSPKLLISYASSRYTGVPDRFTGSGYGTDFTFTISSVQAEDLAVYFCQQDYSSPLTFGAGTKLELKR
notes: Mouse hybridoma antibody generated in the same manner as 9D8; here built without leader

Assays:
recombinant human FGL2 = target: T1, recombinant human FGL2; assay: SPR, Biacore 3000, 25 C, antibody captured by goat anti-mouse Fc, FGL2 as analyte
Method: (§1) The response difference (Resp. Diff.) for each experiment was plotted against time (s). Resp. Diff. is the ligand-immobilized flow cell minus the control flow cell. A) Human FGL2. For the full kinetic analysis, SPR was performed using 0.625 nM, 2.5 nM, 5 nM, and 10 nM recombinant human FGL2. B) Mouse FGL2. For this analysis, SPR was performed using 10 nM recombinant mouse FGL2.
(§2) Binding experiments were performed on Biacore 3000 at 25° C. Flow cell 2 was coated with 1,000 RU of the goat anti-mouse Fc capture Ab by direct immobilization using EDC/NHS amine coupling method and the unoccupied sites were blocked with 1M ethanolamine. 9D8 or 3H9 was captured at an RU as indicated. Either recombinant human or mouse FGL2 was flowed over the chip and binding to 9D8 or 3H9 was monitored in real time. From the observed kon and koff, KD was determined.

recombinant mouse FGL2 = target: T2, recombinant mouse FGL2; assay: as above
Method: as §1, §2

Kd (recombinant human FGL2) | koff (recombinant human FGL2) | kon (recombinant human FGL2) | Kd (recombinant mouse FGL2) | koff (recombinant mouse FGL2) | kon (recombinant mouse FGL2) | Binder
0.857 nM | 0.0019 s⁻¹ | 2.22e+06 M⁻¹ s⁻¹ | 1.8 nM | 0.00334 s⁻¹ | 1.85e+06 M⁻¹ s⁻¹ | B1
0.286 nM | 0.000884 s⁻¹ | 3.09e+06 M⁻¹ s⁻¹ | 0.103 nM | 0.000189 s⁻¹ | 1.84e+06 M⁻¹ s⁻¹ | B2
